Measured values as given in paper PMC8294589.

Target: PP2A-B56γ1 holoenzyme (UniProt P30153)
Sequence (P30153 whole entry, chain 1 of 3, other chains not shown): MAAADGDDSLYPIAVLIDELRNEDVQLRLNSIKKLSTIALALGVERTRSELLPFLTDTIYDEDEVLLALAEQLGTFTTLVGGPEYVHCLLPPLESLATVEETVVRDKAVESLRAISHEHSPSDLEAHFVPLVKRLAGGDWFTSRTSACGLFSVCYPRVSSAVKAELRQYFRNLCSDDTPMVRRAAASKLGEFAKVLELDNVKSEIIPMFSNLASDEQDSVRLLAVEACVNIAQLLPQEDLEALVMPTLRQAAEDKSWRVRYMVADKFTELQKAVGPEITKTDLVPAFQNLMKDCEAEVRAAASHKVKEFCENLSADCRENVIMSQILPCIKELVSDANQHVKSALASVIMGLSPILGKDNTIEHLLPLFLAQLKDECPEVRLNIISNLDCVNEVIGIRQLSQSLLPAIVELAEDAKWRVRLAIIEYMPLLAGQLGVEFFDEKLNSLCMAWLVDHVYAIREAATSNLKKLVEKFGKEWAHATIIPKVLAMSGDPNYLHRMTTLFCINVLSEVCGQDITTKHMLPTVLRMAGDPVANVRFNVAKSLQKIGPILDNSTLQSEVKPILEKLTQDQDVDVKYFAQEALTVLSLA
Sequence (P67775 whole entry, chain 2 of 3, other chains not shown, further chain): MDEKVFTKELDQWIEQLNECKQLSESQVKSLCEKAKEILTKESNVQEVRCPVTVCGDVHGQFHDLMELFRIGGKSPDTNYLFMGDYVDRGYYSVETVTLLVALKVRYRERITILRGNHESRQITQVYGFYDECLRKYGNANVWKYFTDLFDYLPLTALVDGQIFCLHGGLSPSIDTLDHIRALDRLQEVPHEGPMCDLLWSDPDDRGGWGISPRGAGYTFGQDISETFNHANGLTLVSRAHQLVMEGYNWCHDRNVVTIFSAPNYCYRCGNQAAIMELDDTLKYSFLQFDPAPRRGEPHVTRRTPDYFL

pS133-CREB (129–154) peptide, sequence (P16220 129-154): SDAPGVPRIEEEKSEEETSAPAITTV

Km of PP2A-B56γ1 holoenzyme phosphatase activity toward pS133-CREB (129–154), steady-state kinetics with a phosphate sensor (peptide 3.9 to 250 μM): 10.3 μM
Substance: pS133-CREB (129–154) peptide (from UniProt P16220-2 129-154)
